Assay: label from the status in PepcDB records
With “MGYPPIRRFEYEHRGTETFTGRSPVPCHHAGIMSLYLRKQAYGVAPMKKIILSTIAALVASGSVFASYGTAAAQDYPYRPRYDRGYDRGGPPPPPYREHRRHNDGAAIAGGLAAGVIGGLIGGAIANGNGGPRYYEPPPPPRCWFEDRRVPNAYDGGWHMESMRVCN” the protein production was “failed”. In the case of “MGYPPPTRRLGDKKRYHYSNNPNRRHPSAVYSKNSFPKSSNNGFVSSPTADNSTNPSVTPSTASVPLPTAAPGSTFGIEAPRPSRYDPSSVSRPSSSSYSSTRKIGSRYNPDVERSSSTTSSTPESMNTSTITHTNTDIGNSRYSRKTMSRYNPQSTSSTNVTHFPSALSNAPPFYVANGSSRRPRSMDDYSPDVTNKLETNNVSSVNNNSPHSYYSRSNKWRSIGTPSRPPFDNHVGNMTTTSNTNSIHQREPFWKANSTTILKSTHSQSSPSLHTKKFHDANKLDKPEASVKVETPSKDETKAISYHDNNFPPRKSVSKPNAPLEPDNIKVGEEDALGKKEVHKSGREIAKEHPTPVKMKEHDELEARAKKVSKINIDGKQDEIWTTAKTVASAVEVSKESQKELTRSVERKESPEIRDYERAYDPKALKTDVTKLTVDNDNKSYEEPLEKVEGCIFPLPKAETRLWELKNQKRNKIISEQKYLLKKAIRNFSEYPFYAQNKLIHQQATGLILTKIISKIKKEEHLKKINLKHDYFDLQKKYEKECEILTKLSENLRKEEIENKRKEHELMEQKRREEGIETEKEKSLRHPSSSSSSRRRNRADFVDDAEMENVLLQIDPNYKHYQAAATIPPLILDPIRKHSYKFCDVNNLVTDKKLWASRILKDASDNFTDHEHSLFLEGYLIHPKKFGKISHYMGGLRSPEECVLHYYRTKKTVNYKQLLIDKNKKRKMSAAAKRRKRKERSNDEEVEVDESKEESTNTIEKEEKSENNAEENVQPVLVQGSEVKGDPLGTPEKVENMIEQRGEEFAGELENAERVNDLKRAHDEVGEESNKSSVIETNNGVQIMDPKGAVQNGYYPEETKELDFSLENALQRKKHKSAPEHKTSYWSVRESQLFPELLKEFGSQWSLISEKLGTKSTTMVRNYYQRNAARNGWKLLVDETDLKRDGTSSESVQQSQILIQPERPNINAYSNIPPQQRPALGYFVGQPTHGHNTSISSIDGSIRPFGPDFHRDTFSKISAPLTTLPPPRLPSIQFPRSEMAEPTVTDLRNRPLDHIDTLADAASSVTNNQNFSNERNAIDIGRKSTTISNLLNNSDRSMKSSFQSASRHEAQLEDTPSMNNIVVQEIKPNITTPRSSSISALLNPVNGNGQSNPDGRPLLPFQHAISQGTPTFPLPAPRTSPISRAPPKFNFSNDPLAALAAVASAPDAMSSFLSKKENNN”, the protein production is reported as “failed”. In the case of “MHAPAILRQSGIDALLAGDGSPEIMVTDSPSPPVKRSKIWELSRTYHCPVIGLCLPASDLERFAKRFHFKASINNAHDLHVEAVCRVTSRNVVSETIHKYLDRLYESHIKQFDAAKTDSEVLALWETCFTNERIAGPLWAALTHKRISSEGREQIHDRVHMHMHEAVAELSATQHRLNQAEQMLKELAGQLEQIREKHVQTESRLRQQLQQAAAEIKQLQQSRRESETTRQRLETLESGQAILRMGQRLMQLTVENEQLQIKAAQADDLKQSLKNACHNLTELYHERDTLRVERDTLENLLLTLNSGSTTDTETADTTETKMAAYECILCVGGRSTLLPQYRTLARQLGLKLSHHDGGQEDALSRLPEMIYGAAAVICPTDYVSHAAYYQVKRLCRLGHKPCLLFKGTGVSSFAAALTKITSGQASINSSPVDTVETTT”, the protein production is reported as “failed”. With “MHARDVMVSPVVTVGPNATVRQVAQILLERRISAVPVVDADNKVLGIVSEGDLLHRAESGTERSPSWWLRLLTGDAQLATDYVKSHSIKVQDVMTQEVATAAPETPLHEIAMLLEERQIKRVPIVNKEGQLVGIVSRANLLQTIASARPKLEISLPDSVIRKRFFEELRKQPWAHTFNVNATVQNGVVDIWGFAPSVAERTAIRVAAEAIPGVATVNDHLLETPAFVY” the protein production was “failed”. For “MHATTLPSGIRAGRHERTPPPMTVQTGQTRQTRSRTWTRVTGTAAVVAAALTATVTPSVAAPAETPPASVTAAAADVGYDTWQRDCRAVMDAALPYLKERIAGSAPGEKQAVVLDIDNTSLETDFGFSYPQPANRPVLEVAEYAQEHGVALFFVTARPGIIEAPTEWNLAHAGYESSGLYVRGFLDLFKDVAEYKTEQRAEIESKGYTIIANIGNSASDLSGGHAEKTFKLPDYDGQLS”, the protein production was “failed”. With “MHCLIHVPELMNVKGIGGFENLCDLELLTSYLEEVDLIMTNHSTKRSSRSFKISRDHSTTRSSRAHHHFTSPLDPERSSNSITPLDCILDDKLQSLLHSALNQTLEHKEEKKIPAIHSSSHSTTLVEYSS” the protein production was “failed”. For “MHEESGPSWGMRGLRKWLGTAPETRDELLKLVQDSRRFLEPDTVAMLEGVLDLPATKVREVMTPRTSIISLQEDDELLDILHVLIESAHSRFPVFSSDQPDNVVGILLAKDLLPFLTEPSAKVDVRALMRQPLFVPESARSDQVLRMLKHTQTHIAVVIDEYGTTSGLVTLEDILEEIVGEIEDEHDNVDEEAQYIVPDHAHTTANSWMVQALTPIEHFNTVLDADFSDDEVETVGGLLLQEIGLVSDLQGQVIELDDWQFTIIEADARTIHLIRAVHK”, the protein production was “failed”. For “MHEIYIYLGIMFMPTYKHSHTPSHDIEDDEDEGTEHLVDELRTNAGAFEEEALVEKLLENLDLDEVEEDEHDAANASFFDSLHFSSIFVLQKREGENESF”, the protein production was “failed”. For “MHEKVPKKTYDSELYNGYLAIYNGYGDLRYFTVKIENDICVSLVWNTGMTKKSRGKKRIRINVYRPKIAPAKNKKPKPTKEQLMDPEFSDEDVLTSLGFDDGGYIIPLPKKSLMLINLPDSFRDELQTMHVSFYLREVGKLMFG”, the protein production was “failed”. With “MHFCFISSISKIIDRYEIQHADELRALDLEEKIQNYLPHKELLETVQRLAVRHIFLPSSSDKKNVFFLLSTCEYSKLEEPNVDNVSVDSLISLEEQLETALSVSRARKAELMMEYIESLKEKVSALVFIFDKGHILGYDDS” the protein production was “failed”. In the case of “MHGKDPFSDFREFINTMESRVQELGKAYGVEHLAGPQGFAVRYLFENQDKEIFIKDIEKKLSISKSVASNLVKRMEKNGFVELVTSDKDKRYKYVHLTDLGKKKAQDVGHFREAIHGQLLDGISKEDAETAFRVFHQIRKNLEKNKELEHHHHHH”, the protein production is reported as “not failed”. In the case of “MHGSQKDTTFTKIFVGGLPYHTTDASLRKYFEGFGDIEEAVVITDRQTGKSRGYGFVTMADRAAAERACKDPNPIIDGRKANVNLAYLGAKPRSLQTGFAIGV”, the protein production is reported as “not failed”. For “MHHQQRMAALGTDKELSDLLDFSAMFSPPVSSGKNGPTSLASGHFTGSNVEDRSSSGSWGNGGHPSPSRNYGDGTPYDHMTSRDLGSHDNLSPPFVNSRIQSKTERGSYSSYGRESNLQGCHQQSLLGGDMDMGNPGTLSPTKPGSQYYQYSSNNPRRRPLHSSAMEVQTKKVRKVPPGLPSSVYAPSASTADYNRDSPGYPSSKPATSTFPSSFFMQDGHHSSDPWSSSSGMNQPGYAGMLGNSSHIPQSSSYCSLHPHERLSYPSHSSADINSSLPPMSTFHRSGTNHYSTSSCTPPANGTDSIMANRGSGAAGSSQTGDALGKALASIYSPDHTNNSFSSNPSTPVGSPPSLSAGTAVWSRNGGQASSSPNYEGPLHSLQSRIEDRLERLDDAIHVLRNHAVGPSTAMPGGHGDMHGIIGPSHNGAMGGLGSGYGTGLLSANRHSLMVGTHREDGVALRGSHSLLPNQVPVPQLPVQSATSPDLNPPQDPYRGMPPGLQGQSVSSGSSEIKSDDEGDENLQDTKSSEDKKLDDDKKDIKSITSNNDDEDLTPEQKAEREKERRMANNARERLRVRDINEAFKELGRMVQLHLKSDKPQTKLLILHQAVAVILSLEQQVRERNLNPKAACLKRREEEKVSSEPPPLSLAGPHPGMGDASNHMGQM”, the protein production was “failed”. With “MHIAIIGAAGMVGRKLTQRLVKDGSLGGKPVEKFTLIDVFQPEAPAGFSGAVDARAADLSAPGEAEKLVEARPDVIFHLAAIVSGEAELDFDKGYRINLDGTRYLFDAIRIANGKDGYKPRVVFTSSIAVFGAPLPYPIPDEFHTTPLTSYGTQKAICELLLSDYSRRGFFDGIGIRLPTICIRPGKPNAAASGFFSNILREPLVGQEAVLPVPESIRHWHASPRSAVGFLIHGAMIDVEKVGPRRNLSMPGLSATVGEQIEALRKVAGEKAVALIRREPNEMIMRMCEGWAPGFEAKRARELGFTAESSFEEIIQVHIEDELGGSLK” the protein production was “not failed”. With “MHILSMIKSQLKLLFNNRLAVFAIILAPILLTFLVSYSSSSNSKTNVYFADQDNTEASRQLVNMLKNNHDLNLISSSESEIKNKVDDDNITVGVLINKGFGYKLQNNKALDITLIEDYDSVDGEKLSDIILSTENTLQKVNLDSKSISRVLSSNESSISNKIIKKINNGSGVKLLYKNLKSSQNVEDKNAQNLIGFLLMFLWFIVIQGFRTLIEEKENNTFNRIKGTPTNYSKYLLSKIIANYIFGMIIIAIILIVGKYGLKSKIINNVGPEIAILSIYLFSIVGLVMIFVPFVKKHQTFTIIGAAIMVLTGLLGGSFFSMDELQLPKAIEIISKFMPETWGIKSLKEVVFNNLSLGSQSQTILVLGIAGIVGLLISTIIVKIIDRTEKNF” the protein production was “failed”. With “MHILVTGFAPFDNQNINPSWEAVTQLEDIIGTHTIDKLKLPTSFKKVDNIINKTLASNHYDVVLAIGQAGGRNAITPERVAINIDDARIPDNDDFQPIDQAIHLDGAPAYFSNLPVKAMTQSIINQGLPGALSNSAGTFVCNHTLYHLGYLQDKHYPHLRFGFIHVPYIPEQVIGKPDTPSMPLEKIVAGLTAAIEAISNDEDLHLALGTTE” the protein production was “failed”. With “MHIPENLYVVGTMNIADRSLALVDLALRRRFAFVGLEPRLGQVWRDWVVKECAVDPGLVADIERRIAELNDQIAADARLGKQFRIGHSYVTPAHRLEAGDTKKWFLQVVETEIGPLLDEYWFDAPDEAQKAIARLTQGLEHHHHHH” the protein production was “failed”. With “MHLAYPAVLSALLFCTGLYGVLARRNAILVLMSVELMLNAVNLNLVAFDVWLSRAAEETLHSGQALTLFTIAIAAAEIGIGLAIVLAVHRNRGTSDIDKLRDTAEGHEPDGPDTDTPATGTAAEKAEATA” the protein production was “failed”. For “MHLDPDACYHAVQSRDRRFDGWFFVGVTSTGVYCRPICAVRTPLQKNCRFFASAAAAEKAGFRPCLRCRPELAPGHSLAEMSSSLARAAARMIDEGFLQQHDLAALAAAVGVTDRHLRRIFRAEFDVSPIEYAQTQRLLLAKRLLTDTAMPVGDVAYAAGFGSVRRLNSGFAEHYGFAPTRLRTRAAPVSRGDDGATLMLGYRPPFAWHALLDFLRARAVDGVEVVDAHSYARTIALDYAGRRHAGWLRARDVPQRHAIALTLSASLVQAMPPVLARVRRLFDLDCRPDLVDTHLGTLAAGTPGLRVPGAVDGFEIAVRAIAGQVVSLARARRILARLAAAYGTPLAQPRAGLPTAFPSATALASVDPQALSGETGLQASRAAAMVEIARAIDAGRLRLEPLVPLAPTLAALQALSGIGEWTAQYIAMRALGWPNAFPLGDYVLRKRLADHDGTLPTRHAMATRAEDWAPWRAYAAMHLWHRDDAQAPTP”, the protein production was “failed”. For “MHLETNMAGHSIPHFQNDGGHSVIEIGVKEFMCTGASVPFDHPHIFIDMGDDNEKVCSYCSTLYRYNPSLKAEQTNPPGCVFHVKAALEHHHHHH”, the protein production was “not failed”. With “MHLKEKITTIIQGQRTGVLSTVRNDKPHSAFMMFFHEDFVLYVATDRQSKKITDIENNPNVHVLLGREGKKLDEDYIEVEGLASIEEDSTLKNKFWNNSLKRWLLRPEDPNYVLIKINPDTIYYIDGAGTTEPEFLRL” the protein production was “not failed”.

Reference: a protein production outcome set (Wang et al. 2014)
